In assay [1] the target is T1, His-tagged CEACAM1 (human, UniProt P13688 35-428).
T1 construct: 45 kDa SPR analyte; also called CEACAM1-HIS; CEACAM1 analyte
T1 sequence: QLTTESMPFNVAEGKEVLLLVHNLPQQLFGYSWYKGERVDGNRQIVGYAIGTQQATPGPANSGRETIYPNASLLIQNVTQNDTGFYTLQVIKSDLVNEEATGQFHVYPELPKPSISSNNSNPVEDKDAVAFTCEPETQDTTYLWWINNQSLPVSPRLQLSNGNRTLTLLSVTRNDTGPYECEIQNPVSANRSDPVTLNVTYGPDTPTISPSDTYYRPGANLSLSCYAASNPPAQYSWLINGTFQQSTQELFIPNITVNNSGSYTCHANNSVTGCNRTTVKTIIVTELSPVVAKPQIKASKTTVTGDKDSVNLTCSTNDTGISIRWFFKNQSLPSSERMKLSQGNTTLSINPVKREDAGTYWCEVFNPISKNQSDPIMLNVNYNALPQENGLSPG
The assay can be described thus: SPR single-cycle, supernatant IgG captured. The method in brief: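 Humanized, affinity-matured IgGs from crude supernatant (0.5 μg/ml in HBS-P+) captured on Protein A to ~100 RU. Single-cycle kinetics: CEACAM1 at three concentrations, 70–280 nM two-fold, 80 μl/min, 80 s association each, 150 s dissociation. Reference-channel and blank-run subtraction applied.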

Assay [2] deals with T2, CEACAM5 (recombinant protein) (human, UniProt P06731 35-685).
T2 construct: construct not described
T2 sequence (looked up): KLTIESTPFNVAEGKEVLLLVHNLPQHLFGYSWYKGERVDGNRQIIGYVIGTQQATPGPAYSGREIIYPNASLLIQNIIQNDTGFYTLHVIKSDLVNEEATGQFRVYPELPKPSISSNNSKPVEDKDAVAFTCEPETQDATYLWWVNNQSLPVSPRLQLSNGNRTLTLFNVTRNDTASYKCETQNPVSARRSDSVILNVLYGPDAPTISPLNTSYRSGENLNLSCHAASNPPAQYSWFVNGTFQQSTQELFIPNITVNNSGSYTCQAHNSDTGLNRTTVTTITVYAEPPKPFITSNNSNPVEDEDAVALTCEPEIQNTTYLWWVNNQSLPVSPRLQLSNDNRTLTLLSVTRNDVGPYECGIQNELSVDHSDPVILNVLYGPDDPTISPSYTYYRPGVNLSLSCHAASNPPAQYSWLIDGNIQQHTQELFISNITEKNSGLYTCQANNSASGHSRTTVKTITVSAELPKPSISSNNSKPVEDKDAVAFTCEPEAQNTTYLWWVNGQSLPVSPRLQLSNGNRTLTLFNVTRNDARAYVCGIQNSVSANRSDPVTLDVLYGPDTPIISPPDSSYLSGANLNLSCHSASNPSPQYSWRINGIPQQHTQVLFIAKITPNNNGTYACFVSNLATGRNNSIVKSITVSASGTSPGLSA
Kind of assay: SPR single-cycle kinetics, antibody captured on Protein A, CEACAM-5 injected at three rising concentrations [Cont.]. As for the experimental part: In order to assess the binding of the humanized, affinity matured reformatted lead IgGs, single-cycle kinetics analysis was performed on crude supernatants using a Biacore T200 running Biacore T200 Control Software V2.0.1 and Biacore T200 Evaluation Software V3.0. Antibodies were diluted in HBS-P+ to a final concentration of 0.5 μg/ml. At the start of each cycle, antibodies were loaded onto Fc2, Fc3 and Fc4 of the Protein A chip. IgGs were captured at a flow rate of 10 μl/min to give an immobilisation level (RL) of ˜100 RU (a level calculated to obtain a Rₘₐₓ of ˜50-150 RU once the analyte is bound). The surface was then allowed to stabilize. Single-cycle kinetics data was obtained with CEACAM1 as the analyte at a flow rate of 80 μl/min to minimize any potential mass transfer effects. Multiple repeats with the parent (VH1/Vκ8 S29A) antibody were performed to check the stability of the surface and analyte over the kinetic cycles. The signal from the reference channel Fc1 (no antibody) was subtracted from that of Fc2, Fc3 and Fc4 to correct for differences in non-specific binding to the reference surface. […] The association phase for the three injections of increasing concentrations of CEACAM1 was monitored for 80 seconds each time and a single dissociation phase was measured for 150 seconds following the last injection of CEACAM1. […]

Assay [3] addresses T3, GST-CEACAM1 (human, UniProt P13688 35-141, limits assumed).
T3 construct: also called human CEACAM1-GST protein
T3 sequence: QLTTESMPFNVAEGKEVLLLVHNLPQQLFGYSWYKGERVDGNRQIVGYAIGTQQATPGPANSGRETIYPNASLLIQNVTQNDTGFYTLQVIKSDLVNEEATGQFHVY
Kind of assay: competition ELISA: binding of human CEACAM1-GST (37.5 µg/ml) to human TIM-3 IgV domain tagless protein (3 µg/ml), anti-GST detection, OD 450 nm. As for the experimental part: The ability of the CEACAM1 antibodies to reduce the binding of CEACAM1 to TIM-3 was examined. […] In addition, human IgG4 antibody was used as a control (0-1000 nM). Goat polyclonal anti-GST-HSP antibody from Abcam (1:2000) was used and assays were developed by addition of TMB solution (Life technologies). OD values were read at 450 nm on a plate reader. Data was plotted in a Graphpad and best-fit IC-50 values were determined.
On the technique in general: ELISA stands for enzyme-linked immunosorbent assay.

B1: VH1/Vκ8 S29A (antibody, IgG4, V domains shown)
VH: EVQLLESGGGLVQPGGSLRLSCAASGFIFSSHGMSWVRQAPGKGLEWVATISSGGTYTYYPDSVKGRFTISRDNSKNTLYLQMNSLKAEDTAMYYCARHDFDYDAAWFAYWGQGTLVTVSS
VL: EIVLTQSPATLSLSPGERATLSCRANSAVSYMYWYQQKPGQAPRPWIYLTSNRATGVPARFSGSGSGTDYTLTISSLEPEDFAVYYCQQWSSNPPTFGQGTKLEIK
notes: IgG4 (S241P), kappa; also called Parent; Parent (VH1/Vκ8 S29A)
As a reminder, the Kd is a measure of binding affinity in units of concentration. A higher Kd goes with weaker binding. A word on the koff: it is the first-order rate constant of dissociation. High values mean a short-lived complex, low ones a long-lived complex. The term kon denotes the rate constant with which the complex forms. Read a low kon as slow association. Turning to B1, in assay [1], the Kd is 590 nM, the koff came to 0.057 s⁻¹, the kon is 95000 M⁻¹ s⁻¹ and the “relative KD to parent” value was 1.

B2: CP08H03/Vκ8 S29A (antibody, IgG4, V domains shown)
VH: EVQLLESGGGLVQPGGSLRLSCAASGFIFSSHGMSWVRQAPGKGLEWVATISSGGTYTYYPDSVKGRFTISRDNSKNTLYLQMNSLKAEDTAMYYCARHDFDYFPYWFAHWGQGTLVTVSS
VL: EIVLTQSPATLSLSPGERATLSCRANSAVSYMYWYQQKPGQAPRPWIYLTSNRATGVPARFSGSGSGTDYTLTISSLEPEDFAVYYCQQWSSNPPTFGQGTKLEIK
notes: IgG4 (S241P), kappa; also called CP08_H03/Parent VL; CP08_H03/Parental
A word on the IC50: it is the midpoint of a concentration-inhibition curve. In the case of B2, in assay [1], the Kd was found to be 45 nM, the koff is 0.0076 s⁻¹, the kon is 180000 M⁻¹ s⁻¹ and the “relative KD to parent” value was found to be 13.7. The binding result in assay [2] is on record as “no binding”. Also, the IC50 in assay [3] is 31.9 nM.

B3: CP08H03/CP08F05 (antibody, V domains shown)
VH: EVQLLESGGGLVQPGGSLRLSCAASGFIFSSHGMSWVRQAPGKGLEWVATISSGGTYTYYPDSVKGRFTISRDNSKNTLYLQMNSLKAEDTAMYYCARHDFDYFPYWFAHWGQGTLVTVSS
VL: EIVLTQSPATLSLSPGERATLSCRANSAVSYMYWYQQKPGQAPRPWIYLTSNRATGVPARFSGSGSGTDYTLTISSLEPEDFAVYYCQQWTSNPPTFGQGTKLEIK
notes: IgG4 (S241P), kappa
Regarding B3, the binding result in assay [2] is given as “no binding”.

(Values after patent US20250074980A1 (BRIGHAM AND WOMEN S HOSPITAL, published 2025).)
